Source: patent US20200247855A1, “THERAPY AND DIAGNOSTICS” (OXFORD UNIVERSITY INNOVATION LIMITED, priority 2017, published 2020)
Positions count from the first letter of the chain named.

Legend:
Assay in all cases: Biolayer interferometry (BLI) binding
CCL2_HUMAN = CCL2_HUMAN (Homo sapiens, UniProt P13500)
Summary of the method: (§1)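 First, His-tagged tick CKBP is immobilised on a Ni-NTA tip. Second, chemokine is applied at 300 nM to screen for binding. Third, positive pairs are titrated with varying chemokine doses and association/dissociation fits give Kd in molar units.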

CCL18_HUMAN = target: T1, CCL18_HUMAN (Homo sapiens, UniProt P55774)
T1 sequence (P55774 21-89): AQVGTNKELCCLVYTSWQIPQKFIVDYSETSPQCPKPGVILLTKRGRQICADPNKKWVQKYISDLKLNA
Summary of the method: as §1

CCL24_HUMAN = target: T2, CCL24_HUMAN (Homo sapiens, UniProt O00175)
T2 sequence (O00175 27-119): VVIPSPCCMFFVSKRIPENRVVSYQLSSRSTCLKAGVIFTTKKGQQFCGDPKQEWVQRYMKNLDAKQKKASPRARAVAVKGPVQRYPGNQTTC
Summary of the method: as §1

CCL4L1_HUMAN = target: T3, CCL4L1_HUMAN (Homo sapiens, UniProt Q8NHW4)
T3 sequence (Q8NHW4 24-92): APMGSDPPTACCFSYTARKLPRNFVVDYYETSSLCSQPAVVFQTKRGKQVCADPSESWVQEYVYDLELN
Summary of the method: as §1

CCL13_HUMAN = CCL13_HUMAN (Homo sapiens, UniProt Q99616)
Summary of the method: as §1

CCL17_HUMAN = target: T4, CCL17_HUMAN (Homo sapiens, UniProt Q92583)
T4 sequence (Q92583 24-94): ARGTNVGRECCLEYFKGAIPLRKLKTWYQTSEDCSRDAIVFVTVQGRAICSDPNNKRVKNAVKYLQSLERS
Summary of the method: as §1

CCL1_HUMAN = target: T5, CCL1_HUMAN (Homo sapiens, UniProt P22362)
T5 sequence (P22362 24-96): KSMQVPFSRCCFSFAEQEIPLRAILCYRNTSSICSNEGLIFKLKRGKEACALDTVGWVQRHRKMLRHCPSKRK
Summary of the method: as §1

CCL4_HUMAN = target: T6, CCL4_HUMAN (Homo sapiens, UniProt P13236)
T6 sequence (P13236 24-92): T3 sequence (Q8NHW4 24-92) with G47S
Summary of the method: as §1

CCL5_HUMAN = target: T7, CCL5_HUMAN (Homo sapiens, UniProt P13501)
T7 sequence (P13501 24-91): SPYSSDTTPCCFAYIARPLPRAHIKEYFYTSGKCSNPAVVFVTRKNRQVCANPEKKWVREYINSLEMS
Summary of the method: as §1

CCL22_HUMAN = target: T8, CCL22_HUMAN (Homo sapiens, UniProt O00626)
T8 sequence (O00626 25-93): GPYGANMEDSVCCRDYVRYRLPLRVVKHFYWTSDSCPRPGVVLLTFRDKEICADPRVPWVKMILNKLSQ
Summary of the method: as §1

CCL27_HUMAN = target: T9, CCL27_HUMAN (Homo sapiens, UniProt Q9Y4X3)
T9 sequence (Q9Y4X3 25-112): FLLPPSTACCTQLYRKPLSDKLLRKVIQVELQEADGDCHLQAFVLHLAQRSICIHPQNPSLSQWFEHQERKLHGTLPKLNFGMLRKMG
Summary of the method: as §1

CCL20_HUMAN = CCL20_HUMAN (Homo sapiens, UniProt P78556)
Summary of the method: as §1

Chain of CCL2_HUMAN (P13500 24-99): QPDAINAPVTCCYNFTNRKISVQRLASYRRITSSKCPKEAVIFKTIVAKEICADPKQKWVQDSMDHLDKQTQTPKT
Chain of CCL20_HUMAN (P78556 27-96): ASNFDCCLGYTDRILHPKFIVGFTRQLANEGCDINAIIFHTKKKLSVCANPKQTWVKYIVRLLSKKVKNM
Chain of CCL13_HUMAN (Q99616 17-98): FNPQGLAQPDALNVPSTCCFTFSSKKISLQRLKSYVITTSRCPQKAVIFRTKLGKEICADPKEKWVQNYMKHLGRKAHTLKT

B1: P672_RHIPU: tick CKBP, Rhipicephalus pulchellus (protein, listed as Rhipicephalus pulchellus)
chain: VCEVSEQEGVGEDNATEDEDYEDFFKPVTCYFANSTVGPLRPPNCTVVCTNNTAWWNDTKSDGGHCYSEYRPEKRTHSREIYNCTIGVCGNGTCIANHTYADCW
Kd (CCL2_HUMAN): 9.1 nM

B2: P1243_AMBAM: tick CKBP, Amblyomma americanum; AAM-02 stated identical (protein, listed as Amblyomma americanum)
chain: RNHTEDNSTEYYDYEEARCACPARHLNNTNGTVLKLLGCHYFCNGTLCTAPDGYPCYNLTAQQVRTLTTYPNTSCAVGVCMKGTCVKNGTMEQCFKTP
Kd (CCL18_HUMAN): 0.00501 nM
Kd (CCL24_HUMAN): 7.39 nM
Kd (CCL4L1_HUMAN): 35.4 nM
Kd (CCL13_HUMAN): 0.788 nM
Kd (CCL17_HUMAN): 0.734 nM
Kd (CCL1_HUMAN): 21.3 nM
Kd (CCL4_HUMAN): 15.3 nM
Kd (CCL5_HUMAN): 1.74 nM
Kd (CCL22_HUMAN): 22.3 nM
Kd (CCL27_HUMAN): 15.1 nM
Kd (CCL20_HUMAN): 8.34 nM
